In publication doi:10.1101/2025.09.04.674342 (2025):

Target: CBP KIX domain (residues 586–672) (mouse, UniProt P45481 586-672)
Assay: NMR

Sequence of CBP KIX domain (residues 586–672) (P45481 586-672): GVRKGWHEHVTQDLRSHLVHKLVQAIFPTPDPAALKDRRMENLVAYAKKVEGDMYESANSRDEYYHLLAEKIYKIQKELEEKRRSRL

Kd: > 500 µM
Binder: FSDLPWPL [BMAL1 TAD switch peptide (residues 619–626, FSDLPWPL)]
